The values below come from IntAct's records for PubMed 19524571.

B1: Cyclin-dependent kinase 14 (Homo sapiens), O94921 (parent)
chain: MCDLIEPQPAEKIGKMKKLRRTLSESFSRIALKKDDTTFDEICVTKMSTRNCQGMDSVIKPLDTIPEDKKVRVQRTQSTFDPFEKPANQVKRVHSENNACINFKTSSTGKESPKVRRHSSPSSPTSPKFGKADSYEKLEKLGEGSYATVYKGKSKVNGKLVALKVIRLQEEEGTPFTAIREASLLKGLKHANIVLLHDIIHTKETLTLVFEYVHTDLCQYMDKHPGGLHPDNVKLFLFQLLRGLSYIHQRYILHRDLKPQNLLISDTGELKLADFGLARAKSVPSHTYSNEVVTLWYRPPDVLLGSTEYSTCLDMWGVGCIFVEMIQGVAAFPGMKDIQDQLERIFLVLGTPNEDTWPGVHSLPHFKPERFTLYSSKNLRQAWNKLSYVNHAEDLASKLLQCSPKNRLSAQAALSHEYFSDLPPRLWELTDMSSIFTVPNVRLQPEAGESMRAFGKNNSYGKSLSNSKH

The experiment covers variants of B1. The settings on record: with ccny_human CCNY.
Turning to K164R, the “effect of a mutation on the interaction” value is recorded as “decreasing interaction strength”.
